Test results: the domain aggregation screens of Martell et al. (2025)

experiment: soluble fraction after stress (log2 fold change); higher = more stays soluble; pooled small domains, quantitative proteomics; conditions: stress: pH 4
In short: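 Following acid stress at pH 4, the amount of each small protein domain still soluble was measured in pooled custom libraries by high-throughput quantitative proteomics. Its fold change, on a log2 scale, is higher when more of the domain stayed soluble. This fold change is taken as a measure of aggregation propensity.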

First: HMGNIADARRDASYVFLIGEWAKSSNLTEKKLAGLIQSNHLDIKYGITVTDVIADIRKYKNDPTYNPF
Second: HMGNIKVPSVMGMTLEGAEKVAKDNGAVIEVLEYKESTEEDGTIIEQSPKADMTVATLEKISVVISGK
The “soluble fraction (log2)” value of the first is higher: 0.312 for the first, 0.0995 for the second.

Going from “HMGNIYKALLGKLEKQLGFLPEGTKLPPEQELAEKFGVSKPTLRRALAELAVRGIIVKQNGIGSVVAGS” to “HMGNKKLVLKLSKKLIKIPSFLNIYSVKLTKNGRELEINLDKSQNEAIDIINLIKKNNISFLEFDIKKR”, the “soluble fraction (log2)” value falls from at least 0.43 to 0.015.

First: HMGNLIIFYDAQTGSAPLLKAVKTSGATLVYEYKNLHGIAIRPSSKTSIEDAIAYFKKVNGVLSVE
Second: HMGNPSGLPLPRFASTRSEPINVRVGPGQKYDIAWTYLKSGIPVEIIQEFDTWRKIRDFDGAEGWIHQNLL
The “soluble fraction (log2)” value of the first is higher: 0.0783 for the first, -0.398 for the second.

Compared with “HMGNSRNDQDLQTQIIKILAEGPASSRTLIETLTIEDEAALLKTLKRLLMNKKISLTPSNLYKL”, “HMGPAAGVVEKYNLAHLSTGEMIRKEIAEGSDFGKMAAGIINKGELLSDEFVVALIENSIEHHKNVDGFLF” is higher in “soluble fraction (log2)” value: -0.66 for the first, -0.22 for the second.

Going from “HMGPAVGAIRVEGNKRVEPETVRTYLTFNVGDPYDLAKVDESLKALFATGLFQDVRIRREGNTVVIVVVEN” to “HMGPAYQTQRQEAFAALSEIAAKNPQLMQVAGDLVFRAADFPMADELADRLAKTLPPQLQDKKGQP”, the “soluble fraction (log2)” value rises from -1.07 to -0.313.

Compared with “HMGPEISEDAKVVFDRLKNHDEILLNNFKSEFDLSNKKWDKIIKELRGNDLISIIKSEDGNLFIKP”, “HMGPELGENEKLIFDIIKKESKMELGILKAQVDLSNKKWDKALKGLATHGLTKVNKTDDGLFIELI” is lower in “soluble fraction (log2)” value: -0.293 for the first, -0.942 for the second.

Compared with “HMGPIITKTYNLSYATARDVNDIIKSKKSARGDIVIDTRTNSLIVSDVQEKIDLIDEIVATL”, “HMGPLSDRSVADWLLRLGLADTANNRLLLQVMHAAGLPLERTAVRAMRETAAGRPEGTDAREWLQAAAAAQ” is higher in “soluble fraction (log2)” value: -1.37 for the first, -0.326 for the second.

Compared with “HMGPNSVPDLRGKSLRQAMKMVNDLELKAIFEGEGIVVGQVPAPGKPVPETKILKITLSLEPY”, “HMGPPAVGSKLQDARKAQQLSLDELSKRAGVSKSMLSEVERNQANPTVGVLWRLATALGISLTDLLG” is lower in “soluble fraction (log2)” value: 0.0736 for the first, -0.549 for the second.

First: HMGPPLISLDDGLAKGFGVGVGDTLTINILGRRITATIASLREIDWQSLRFDFAVVLSPGVLEGA
Second: HMGPRKAGSEATRQKILDAAEILFAERGFHSVSVRDITTEAGVDVALINYHFGSKQLLFETVFMRR
The “soluble fraction (log2)” value of the first is higher: 0.063 for the first, -0.472 for the second.

“HMGPRPLPAEFTHPSLRALLALGTTRGGVTSADVKTALEAASVPAGRRAAVLRALDDNGIEVHTEP” and “HMGPSEVTLDNFVGKNYTDVVNDTSYQFTFKKEEKSDQTHAAGIIIAQSPKKGIKVKSNSTVTLTVSTG” are within 0.2 log units of each other in “soluble fraction (log2)” value: 0.107 for the first, 0.216 for the second.

“HMGPVDFYQMFISELQHLAEKPVTVDALIESTQLHKSQLTEWLKRAVDDGVVKKLNRPARFQVKNK” and “HMGPVRDLGLLESAAHRPTTALWGRDVYATIEKKAAALLDSLVRDRPLADGNKRLGWLAALV” are within 0.2 log units of each other in “soluble fraction (log2)” value: 0.136 for the first, 0.0116 for the second.

First: HMGPYGAGSAAPAEDGSGPEGWTVKGNAKSMLYHTEGSPYYGRTNADVWFRDEESAEAAGFRRWDRK
Second: HMGQAELPYSEFLREVNNGQVKSVIIEGSEITGFYKTSGTSFNVIAPDDPKLVERLMAQGVEVRAQPA
The “soluble fraction (log2)” value of the first is lower: 0.033 for the first, 0.239 for the second.

Going from “HMGQDLEAFLLKAVGQLDQGDGVTLDALLKVAVSNGGFVREVAEAKLDDMLDAGTLDEPRFGWFRVGAT” to “HMGQDLSYYIKIVQNQQPVDPLTGEPKVLDYGEVIRQAQILQMLDTGDLDRDKAIGQLSMKDAL”, the “soluble fraction (log2)” value rises from -1.68 to -0.26.

Going from “HMGQELRFVIQDHEAGIRLDHYLTQQVEGYSRSHLRKLMDQGLITVDGSYRKAGYRLNVGDVIHVVIPPTR” to “HMGQELTPVERTALDIAARDGKVSTRILAQEAGIGLRTASKTLAALAERGLLTWHGTSRRDPQQHYTS”, the “soluble fraction (log2)” value rises from -0.0619 to 0.154.

First: HMGQISDESVLKEMVVQLIADNPKEVASYLGGKETLLQWFMGQVARATKGKADPQAVKQLLLDEFEKLK
Second: HMGQKETIVDLLKTNGTMTQLALAEAIYGDKNHGPNIYSVLMGRVNSGAVLRTGSQPAYYSLSG
The “soluble fraction (log2)” value of the first is lower: -0.504 for the first, 0.22 for the second.

Compared with “HMGQKMLTIELQEKVNKMPDNLASYDLKLSADGMSLIYKYSLKSERTGITALLQELKNAGLVMRDLKTEQ”, “HMGQLSDREALTVLAREALVELPRAAGDYRNGRTAALQSLVGRVMRKTAGRGNPALLQEIFRSLL” is higher in “soluble fraction (log2)” value: -0.302 for the first, 0.00453 for the second.

First: HMGQLVVHQIKGEASRLDKFLVVNIPKYSRSVWREMINNGSVQVNGRVVKPHLLVKEGDIITWSS
Second: HMGQLVYPAGVYDVNKSYITDSNSAPYVLDKTDNNYYVLNTQMTWKGTEQDNKTPSQSYEESGGSVWLLFD
The “soluble fraction (log2)” value of the first is higher: 0.0267 for the first, -0.59 for the second.

“HMGQPAVSSRDVAEQFGKEHRNVIQSIKNLIAENSALTFMFIEDTYTAGTGKKYPMYYMNRDGFTLLA” and “HMGQPGNWTSYVFKNSDTEPAKPTSSGPIPSGWNDAPTGVGIWWMSKATIDASTGKAGSWSTPIRVTGED” are within 0.2 log units of each other in “soluble fraction (log2)” value: -0.15 for the first, 0.0155 for the second.

First: HMGQSKNERMLELVELLNKASRSYYQDAQEIMSNYEYDRLYDELQNLEKELGITLSNSPTVN
Second: HMGQVSDETGLARVVDALLAAHPDEVAKYRAGKTSLLGWFMGQVMKETRGQANPDLARALVLERLE
The “soluble fraction (log2)” value of the first is lower: -1.3 for the first, -0.269 for the second.

Compared with “HMGQYSTTLDKIENSLFGFTYSNEAENTRINRIENKVYGKTSTSQTSTRIAKLKKDLSVDEMG”, “HMGREVVVPNLAGIEKEVALDLLKKNRLGGMITGTRFSSDFPAGQVIQQMPEAGSRVKVGKQVKLVLSEG” is higher in “soluble fraction (log2)” value: -0.00491 for the first, 0.334 for the second.

Going from “HMGRGSEDEQMRGLAVILAEQKQIMQTLGVENEVVKPEQYINTLKRMAELNGFKDTDQFFSIPQ” to “HMGRHSPLSIEQKEQLKTEIVALQQQRGGGRVTAVNIAELIQQKFNVVYNPNSLYKLLKQIGMSWV”, the “soluble fraction (log2)” value rises from -0.587 to -0.311.

“HMGRKEIIVPNLLGKYAIEAGTILKNAGLLEGQAREENSDTYPAGQIMDQFPKANTPANENDKVDYVVSI” and “HMGRLEVDLVVPYDKYEAMNVIRAEGRILKEDHQGDGAHLKIQINETALWKLKRMLGEGYGQ” are within 0.2 log units of each other in “soluble fraction (log2)” value: -0.202 for the first, -0.255 for the second.

“HMGRLPMNIVRAIVEHLDRHASYSEINRATGASKGFISKVAAAVEAASLTPEKFLLLNDEDIQNRITPGR” and “HMGRPTLEQLLDRAQAMGVPRERYAAYADRRWGRGWRVNPHGRGRAWDELDRYRNDPAGYLDKIEVELNQL” are within 0.2 log units of each other in “soluble fraction (log2)” value: -0.133 for the first, -0.0109 for the second.

Going from “HMGRQVTVPNVTGMLVEEARAAISEAELWVDSPRAVQGEVTRQEPARGERLSPGQEVRIYTES” to “HMGRRSKAMLSSALDAVPGLGEMRRKALISQFGSLKKLRGATPEEIAAVPGIGPKLAAAVHEAVSG”, the “soluble fraction (log2)” value rises from -0.568 to 0.131.

Going from “HMGRSTQVPGVEKMTYSQAVQLLHDHGFRVDIRDSLYRDDIKPGHVIEQFPKAKSIVKPGRKIFLYINAV” to “HMGRTGTVVVSPSLNVRTGPWGEIIGSLYNGNKVEIIGSSGDWYQISFGGKTAYVHSDYVVDGG”, the “soluble fraction (log2)” value falls from 0.105 to -0.779.

First: HMGSDAFDISKLNLVGKTKESAESLLKENGFSVDTKEEASDTAAKGTVISYSPTKPKNGERVTLTVSSGK
Second: HMGSDQEAAMARQDRLSTLVDYVVERGSVHVDDIVADLGVSPATVRRDLDALAAQQLIIRTRGGATANHT
The “soluble fraction (log2)” value of the first is higher: 0.243 for the first, -0.552 for the second.

“HMGSGKGAAHTILGISADASDDEIKAAWRKLVQENHPDKLVSQGLPDEFVQAATDRLRLINTAYQSMLNRP” and “HMGSGLAAAEKIRKAHPEIKIVVATSLIDTQVLARAKAVGADSLWYKDGDEGTLMQVVRRTMAGDHIFP” are within 0.2 log units of each other in “soluble fraction (log2)” value: -0.328 for the first, -0.366 for the second.

Going from “HMGSIGAMLSSPELYGKLATNPATRGFLSQPDFIAMLTDVQKNPDKFGSYMSDPRMMQVLSVALG” to “HMGSIRDIIVQYLSKFDDPQPAAKIVEYVQQYRDTTESSIRSSMGSGDQFVQFSGGLYGLKDKTYAAWYSI”, the “soluble fraction (log2)” value falls from -0.103 to -0.383.

Compared with “HMGSLKISNPVKDTLWIQGVDGLKSIEIYSSTGQLVKTILGNQGDVSSLPKGVYFLKINTPSESLTAKIIK”, “HMGSLPPPKDGTTIYVVKPGDSLWRISGKFFGNPLFWPRLWEINPNIDNPNKIYPGDVISLKP” is lower in “soluble fraction (log2)” value: at least 0.43 for the first, 0.219 for the second.

Compared with “HMGSLVKLQSAAELHQAGRSAEAVPILLEVLATNPRLVDGWEILANALEKLGRLDEALAALKKTVALSPPG”, “HMGSNENTIREYFDSLIASASKREIMDANPTMSQRTVERILQKLQAEGYVEKIGAARSTRYRRA” is higher in “soluble fraction (log2)” value: -1.23 for the first, -0.0919 for the second.

First: HMGSQLYTLEVEADEKISLIENNPLLIQKIYLKDNNLFSYKIASSSKTEIASIEKELEKNPSIKRLETA
Second: HMGSQQIEEGMRRLVASGALRPGASVPSVRDLARDLQVNPATVVRAYQRLVDAGLLVVRRGEGTFVAE
The “soluble fraction (log2)” value of the first is lower: -0.502 for the first, -0.103 for the second.

“HMGSSLLSPKEREVLQLLAGNLSNKQIALAMGVSDETIKWHLRNLFGKLNAGGRKHLIDRARMLGLLAAA” and “HMGSVHDAATDRIREMILGGQFEPGERLRQDDLATSLGVSTMPVREALRQLQAEGLVVFYPRKGAVVAR” are within 0.2 log units of each other in “soluble fraction (log2)” value: -0.153 for the first, -0.173 for the second.

First: HMGTAEDYLLPRRAEILSIIRDHEFANFDLIRRRFLAVNERTLRYDLKKLSDLGLIKKLGKTRGVYYRAAK
Second: HMGTAVKAPMPGTILKVNVTAGQSVKAGDIMFILEAMKMENEIVAPSDGTVSQVVAAKGSSVATDDVLAYL
The “soluble fraction (log2)” value of the first is higher: at least 0.43 for the first, -0.0993 for the second.

“HMGTDGLKDIVLEILKEHPNQLAELIDGKQKVLGFLVGQVMKKTNGAANPKEVNEIIQGEIKK” and “HMGTELSYSEFLNKVEAGEVTNVTIRGPEITFQTGNSSYTTYAPDDPKLIEHLTAKGVAIKAGP” are within 0.2 log units of each other in “soluble fraction (log2)” value: -0.433 for the first, -0.311 for the second.

Compared with “HMGTGELLVHVIGAVHSPGVVRLPTGARVVDAIDAAGGAREDAQTEQLNLARLVDDGEQVRVPVVGESVD”, “HMGTGIKQVNVVSVIGQDEETAKTTLTNLGLKVNVTYATSTSDNGKVTKQSIDAGKTVDEGTSVTITVNKV” is lower in “soluble fraction (log2)” value: 0.00081 for the first, -0.269 for the second.

Going from “HMGTHSAEQVRAAIRAIVAAEDAANPLSDARITELLAMRGIAAARRTVMKYREQLGIPSSAKRRR” to “HMGTHVVQEGEYLDLIIEKTIPGSPIRKDLLRKAFVKLNPSAFGGRGNPNYIFARKKLKVPSVEDLKAVIF”, the “soluble fraction (log2)” value falls from at least 0.43 to -0.36.

Going from “HMGTIEEYSKYLINQYFDSLKKPMDAMTTSEKIEIVKSLDKKGIFNLKGSVGELAKRFNTSEKTIYRYLSS” to “HMGTKRWELPRRVQQMATQHGKSISTAAAEELVSRSGENTRMLDNDLVKLAQMVEAPQIELADVERWIVR”, the “soluble fraction (log2)” value rises from 0.00746 to 0.335.

With “HMGTLPSLAPSGEKTVRLPNLAGWSLRETMEILQKGGLQLLPIGSGISFKQSPPPGTTLNEGDAVTVWF” the “soluble fraction (log2)” value was 0.103.
